Legend:
[1] = biological target: type 2α regulatory subunit of PKA (RIIα), full length (rat, UniProt P12368 1-401); test: fluorescence polarisation
[2] = biological target: type 2β regulatory subunit of PKA (RIIβ), full length (rat, UniProt P12369 1-416); test: fluorescence polarisation
Sequence of type 2β regulatory subunit of PKA (RIIβ), full length (P12369 whole entry): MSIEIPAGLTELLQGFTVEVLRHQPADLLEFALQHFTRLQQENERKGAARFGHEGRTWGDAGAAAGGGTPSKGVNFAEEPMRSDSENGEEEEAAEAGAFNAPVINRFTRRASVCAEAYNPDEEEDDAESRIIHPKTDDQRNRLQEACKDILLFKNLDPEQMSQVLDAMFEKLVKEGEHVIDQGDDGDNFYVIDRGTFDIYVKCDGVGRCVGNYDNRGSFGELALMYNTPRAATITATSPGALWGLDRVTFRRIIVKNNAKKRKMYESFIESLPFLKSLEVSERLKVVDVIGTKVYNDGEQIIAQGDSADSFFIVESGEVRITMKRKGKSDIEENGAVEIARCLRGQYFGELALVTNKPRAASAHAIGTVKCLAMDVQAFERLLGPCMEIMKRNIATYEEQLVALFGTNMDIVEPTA

Sequence of type 2α regulatory subunit of PKA (RIIα), full length (P12368 whole entry): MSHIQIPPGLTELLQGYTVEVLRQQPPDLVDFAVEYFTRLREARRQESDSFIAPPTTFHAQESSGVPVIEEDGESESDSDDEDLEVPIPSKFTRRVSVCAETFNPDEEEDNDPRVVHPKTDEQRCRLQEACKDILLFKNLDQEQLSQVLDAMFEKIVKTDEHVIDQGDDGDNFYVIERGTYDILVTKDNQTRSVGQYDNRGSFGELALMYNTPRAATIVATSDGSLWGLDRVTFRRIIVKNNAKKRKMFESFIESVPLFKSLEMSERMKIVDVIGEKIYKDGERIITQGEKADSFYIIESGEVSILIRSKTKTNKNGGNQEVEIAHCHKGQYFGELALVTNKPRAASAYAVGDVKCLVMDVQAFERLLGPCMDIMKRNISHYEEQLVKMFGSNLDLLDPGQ

B1: S100A1 (natural protein)
chain: GSELETAMETLINVFHAHSGKEGDKYKLSKKELKELLQTELSGFLDAQKDVDAVDKVMKELDENGDGEVDFQEYVVLVAALTVACNNFFWENS
A Kd [1] of 990 nM and a Kd [2] of 2160 nM were found for B1 in this work.
